What all share (assay): ITC; VP-ITC or ITC200; 25°C; ITC buffer (50 mM Tris/HCl, pH 7.5, 150 mM NaCl, 2 mM DTT, 5% glycerol); SUMOs titrated into a solution of the RNF4 construct or peptide (legends of Figures 1B, 2B); 20–30 injections up to 2–3-fold molar excess; values averaged from two to six titrations
In general terms: ITC needs no label: the signal is the heat of the interaction.

For assay [1], the target named is RNF4 1–125 (RNF4-SIM domain, wt) (human) (UniProt P78317).
The target of assay [2] is RNF4-SIM2/3 peptide (human).
RNF4-SIM2/3 peptide (human), sequence (P78317 43-65): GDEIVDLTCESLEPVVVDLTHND
Assay [3] addresses synthetic tandem PIAS1 SIM peptide.

This passage reports Kd results from PMC3901395, “Multivalent interactions of the SUMO-interaction motifs in RING finger protein 4 determine the specificity for chains of the SUMO” (Biochemical Journal, 2013).

Broadly, the pKd is −log10 of the Kd, conventionally taken in molar units. Read a low pKd as a large Kd.

pKd: −log10 of the molar value.

RNF4 1–125 (RNF4-SIM domain, wt) (human), sequence (P78317 1-125): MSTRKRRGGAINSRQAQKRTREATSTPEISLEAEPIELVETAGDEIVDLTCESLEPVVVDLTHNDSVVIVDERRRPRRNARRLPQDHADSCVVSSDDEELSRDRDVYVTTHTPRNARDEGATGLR

In the case of “linear di-SUMO1 (2×SUMO1-ΔN15) (from UniProt P63165 16-101; P63165 16-101)”, the pKd in assay [1] is 4.77.
For “linear di-SUMO2 (2×SUMO2-ΔN11) (from UniProt P61956 12-95; P61956 12-95)”, the pKd was 4.85 in assay [1], 5.07 in assay [2] and 5.42 in assay [3].
For the substance “linear tetra-SUMO1 (4×SUMO1-ΔN15) (from UniProt P63165 16-101; P63165 16-101; P63165 16-101; P63165 16-101)”, in assay [1], the negative-log Kd (pKd) was 5.37.
Same read-out and setting: as for “linear tetra-SUMO2 (4×SUMO2-ΔN11) (from UniProt P61956 12-95; P61956 12-95; P61956 12-95; P61956 12-95)”, the figure is 5.80.
